Legend:
[1] = NanoDSF melting temperature / thermal stability; format: physicochemical
Protocol: Each of the GLP-2 peptibodies was tested by determining melting temperature with nanodifferential scanning fluorimetry (NanoDSF). NanoDSF is a measurement of protein stability over a range of temperatures, with a temperature ramp employed. The stability of tryptophan is measured by fluorescence, as reflected in a ratio of fluorescence at 350 nm to fluorescence at 330 nm. From the assay, one or more melting temperatures are determined. Because a protein in a certain state is understood to have a melting temperature, the number of melting temperatures observed reflects the number of different states.
(§1) Stability analysis was then performed using SEC-MALS and NanoDSF. For SEC-MALS, a Sepax Zenix C-150 column was used. The mobile phase buffer was 1× PBS with a final concentration of 400 mM NaCl. The flow rate was 0.8 mL per minute. 20 micrograms of total protein was injected. For NanoDSF, 10 microliters of sample was used, without normalization of the samples.
as §1

[2] = SEC-MALS (Sepax Zenix C-150) peak distribution; format: physicochemical
Protocol: A SEC-MALS assay was performed to determine the primary state (main peak) and its molecular weight. […] The GLP-2 peptibody O (albumin fusion) eluted at a molecular weight indicative of a monomer.
as §1, §1

[3] = Rat pharmacokinetics, intravenous dosing; format: in vivo, Sprague-Dawley rats; conditions: single dose 1 mg/ml
Protocol: In the rat, four pharmacokinetic parameters were measured for Gattex® (a GLP-2 peptide having the A2G mutation): CL, Vc, Vt and Q. The same pharmacokinetic parameters were also measured for GLP-2 peptibodies A, B, E, J, K, L, M, O and P. The data is shown in Table 4. Male Sprague-Dawley rats (3 animals per group) were injected intravenously either via a jugular vein or tail vein catheter. A singles dose of test article was injected at a dose level of 1 mg/ml. The test articles were formulated in PBS pH 7.4 at a concentration of Blood samples were taken 0.083, 0.167, 0.33, 0.5, 1, 2, 6, 24, 48, 72, 120, 168, 240, and 336 hours post dose. Blood samples were collected into heparinized tubes and centrifuged for 5 minutes at 2000 xg within 10 minutes of collection. 100 μL of plasma were transferred to a 1.5 ml Eppendorf tube containing 2 μL of 50 mM PMSF. After mixing, the plasma samples were frozen at −80° C. until analysis.

[4] = Projection of intravenous and subcutaneous PK parameters for humans; set-up: species or system human
Protocol: While a dose of 30 μg/kg once weekly (QW) is projected from the cynomolgus monkey PK data, the dose should be ten times higher (300 μg/kg) to adjust for the difference in in vivo potency.

[5] = Rat pharmacokinetic comparability with/without C-terminal lysine; format: in vivo, Sprague-Dawley rats; conditions: in vivo, 1 mg/kg
Protocol: 1 mg/kg of total GLP-2 peptibody K protein was administered subcutaneously to one group of six male Sprague-Dawley rats. 1 mg/kg of total GLP-2 peptibody K274 protein was administered intravenously to another group of six male Sprague-Dawley rats. 1 mg/kg of total GLP-2 peptibody B protein was administered subcutaneously to a third group of five male Sprague-Dawley rats. 1 mg/kg of total GLP-2 peptibody B264 protein was administered subcutaneously to a fourth group of five male Sprague-Dawley rats.
For all of the above groups, plasma samples were taken pre-dose, and at the following time points post-dose: 5 minutes (day 1), 10 minutes (day 1), 20 minutes (day 1), 30 minutes (day 1), 1 hour (day 1), 2 hours (day 1), 6 hours (day 1), 24 hours (day 2), 48 hours (day 3), 72 hours (day 4), 120 hours (day 6), 168 hours (day 8), 240 hours (day 11), and 336 hours (day 15).
Tables showing the pharmacokinetic data comparing intravenously administered GLP-2 peptibody K and GLP-2 peptibody K274 are in FIG. 10B. Tables showing the pharmacokinetic data comparing subcutaneously administered GLP-2 peptibody K and GL-2 peptibody K274 are in FIG. 10C.

## GLP-2 peptibody K: GLP-2[A2G]-GGGGSGGGGSGGGGS linker-IgG1 Fc (LALA) with C-terminal lysine; SEQ ID NO: 10
[1]; first transition
  NanoDSF melting temperature 1: 1 = 67.5 °C
[1]; second transition
  NanoDSF melting temperature 2: 2 = 79.7 °C
[2]
  SEC-MALS Zenix C-150 main peak: 80.2% main peak, 149,900 g/mol
[3]
  CL: 2.24 mL/h/kg
  Q: 2.54 mL/h/kg
  Vc: 0.0422 L/kg
  Vt: 0.0464 L/kg
[4]
  Vc: 0.0385 L/kg
  Vt: 0.0361 L/kg
  ka: 1.40 day⁻¹
[4]; exponent on CL 0.85, monkey 3.5 kg, human 70 kg
  CL (value in parentheses): 0.642 mL/h/kg
[4]; first value of cell
  CL: 1.01 mL/h/kg
  F: 86%
  Q: 2.35 mL/h/kg
[4]; value in parentheses
  F (value in parentheses): 60%
  Q (value in parentheses): 1.5 mL/h/kg
[5]
  pharmacokinetic comparability of K and K274: identical from a pharmacokinetic point of view

Reference: US20230031280A1, “GLP-2 FUSION POLYPEPTIDES AND USES FOR TREATING AND PREVENTING GASTROINTESTINAL CONDITIONS” (SHIRE-NPS PHARMACEUTICALS, INC., priority 2017, published 2023)
